Results: US20230174617A1 (PROGEN, published 2023)
One block for each binder: values may come before it.

How the values were obtained:
[1] = biological target: T1, recombinant human neonatal Fc receptor (rhFcRn, R&D systems) (human, UniProt P55899 24-297; P61769 21-119); experiment: SPR, steady state affinity, rhFcRn on chip, pH 6.0
T1 construct: Bought reagent; also called recombinant FcRn
Description: (§1) As the analyzer, Biocore 8K (GE Healthcare, USA) was used, and all reagents used in the analysis were purchased from GE Healthcare. […] The experiment was performed at a flow rate of 30 μl/min at 25° C., an association of an analyte was performed for 60 seconds, and then dissociation was performed for 60 seconds. […] At this time, the buffer solution was replaced with a PBS buffer solution having a pH of 7.4 during regeneration.
(§2) During the regeneration, a PBS buffer solution having a pH of 7.4 was used.

[2] = biological target: T2, FcγRIIa (UniProt P12318 36-218, limits assumed); experiment: BLI, single trace with fit; PBS panel as control
T2 sequence (looked up): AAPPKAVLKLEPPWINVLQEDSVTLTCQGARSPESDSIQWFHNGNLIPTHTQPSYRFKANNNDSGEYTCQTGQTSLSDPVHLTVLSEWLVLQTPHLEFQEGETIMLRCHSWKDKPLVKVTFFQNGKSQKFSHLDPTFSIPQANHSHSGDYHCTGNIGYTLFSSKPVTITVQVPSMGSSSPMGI

[3] = biological target: FcγRIIIb (UniProt O75015 17-200, limits assumed); experiment: BLI, single trace with fit; PBS panel as control
FcγRIIIb, sequence (O75015 17-200 limits assumed): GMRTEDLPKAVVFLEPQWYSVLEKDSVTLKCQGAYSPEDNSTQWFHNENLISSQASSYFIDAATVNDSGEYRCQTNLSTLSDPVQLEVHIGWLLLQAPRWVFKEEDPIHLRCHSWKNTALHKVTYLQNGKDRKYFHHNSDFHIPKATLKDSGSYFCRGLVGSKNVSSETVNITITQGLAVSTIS

[4] = biological target: T3, FcγRIIb (UniProt P31994 46-217, limits assumed); experiment: BLI, single trace with fit; PBS panel as control
T3 sequence (looked up): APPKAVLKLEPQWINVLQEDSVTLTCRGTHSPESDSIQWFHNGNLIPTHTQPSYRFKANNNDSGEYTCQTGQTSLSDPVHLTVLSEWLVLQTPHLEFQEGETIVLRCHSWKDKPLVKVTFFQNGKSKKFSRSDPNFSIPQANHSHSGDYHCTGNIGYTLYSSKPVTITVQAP

[5] = biological target: T1, recombinant human neonatal Fc receptor …; experiment: SPR, rhFcRn on CM5, analyte in PBST pH 6.0, steady state affinity
Text: as §2

[6] = biological target: T4, complement C1q (UniProt P02745 23-245; P02746 28-253; P02747 29-245); experiment: ELISA, PG-11 coated at 2 µg/ml, C1q in varied concentration, OD 450 nm
T4 construct: the method text names a C1q-HRP conjugate; also called C1q-HRP conjugate
T4 sequence (P02745 23-245 limits assumed, chain 1 of 3): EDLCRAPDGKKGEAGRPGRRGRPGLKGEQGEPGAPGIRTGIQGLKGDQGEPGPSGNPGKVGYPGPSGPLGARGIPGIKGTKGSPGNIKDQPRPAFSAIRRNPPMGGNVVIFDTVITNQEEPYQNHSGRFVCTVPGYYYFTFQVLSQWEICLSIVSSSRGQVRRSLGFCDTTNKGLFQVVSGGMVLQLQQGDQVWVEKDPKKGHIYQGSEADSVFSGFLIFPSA
T4 sequence (P02746 28-253 limits assumed, chain 2 of 3): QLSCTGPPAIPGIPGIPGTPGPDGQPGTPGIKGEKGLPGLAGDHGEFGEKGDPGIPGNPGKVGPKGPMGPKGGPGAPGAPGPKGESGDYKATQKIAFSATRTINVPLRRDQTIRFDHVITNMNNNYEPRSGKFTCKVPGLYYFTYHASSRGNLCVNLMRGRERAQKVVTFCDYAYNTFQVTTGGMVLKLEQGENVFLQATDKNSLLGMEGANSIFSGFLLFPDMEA
T4 sequence (P02747 29-245 limits assumed, chain 3 of 3): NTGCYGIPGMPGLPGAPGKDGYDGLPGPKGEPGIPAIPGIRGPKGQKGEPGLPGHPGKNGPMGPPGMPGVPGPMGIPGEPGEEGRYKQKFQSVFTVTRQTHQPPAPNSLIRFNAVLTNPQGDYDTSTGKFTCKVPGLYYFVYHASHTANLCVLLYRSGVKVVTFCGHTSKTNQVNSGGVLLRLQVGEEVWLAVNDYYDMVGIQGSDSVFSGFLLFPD
Description: Subsequently, 100 μl of each diluted sample was loaded into each well and reacted overnight at 4° C. Next, washing was performed three times by adding 300 μl of a washing buffer solution to the plate each time, 200 μl of a blocking buffer solution (2% BSA/PBS) was added to each well and reacted at room temperature for 2 hours. 300 μl of the washing buffer solution was added to the plate, then washing was repeatedly performed three times, an anti-C1q antibody was diluted with an assay buffer solution to 10, 3, 1, 0.3, and 0.1 μg/ml by ⅓, and mixed (duplication) in an amount of 50 μl in each well, and then the resultant was reacted at room temperature for 2 hours. Then, the washing buffer solution was mixed in the plate by 300 μl each time and washing was repeatedly performed eight times. A C1q-HRP conjugate was diluted 400-fold, and 50 μl of the resultant was added to each well and reacted at room temperature for 1 hour. The washing buffer solution was added to the plate by 300 μl each time, washing was repeatedly performed eight times, 50 μl of TMB as a substrate was mixed, and the resultant was reacted at room temperature. When the color development reaction appeared in blue, 50 μl of a stop solution was added to each well to stop the reaction, and then optical density was measured using a microplate reader set at 450 nm.

[7] = biological target: T5, Fc gamma receptor IIIa (FcγRIIIa) (UniProt P08637 17-208, limits assumed); experiment: BLI; concentrations and the immobilised partner are not given
T5 construct: also called FcγR3a
T5 sequence (P08637 17-208 limits assumed): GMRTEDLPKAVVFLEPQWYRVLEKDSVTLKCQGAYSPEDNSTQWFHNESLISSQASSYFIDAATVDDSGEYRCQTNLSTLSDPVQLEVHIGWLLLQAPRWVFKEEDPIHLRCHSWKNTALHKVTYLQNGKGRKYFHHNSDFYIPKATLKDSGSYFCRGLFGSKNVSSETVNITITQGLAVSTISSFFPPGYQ

[8] = biological target: T6, Fc gamma receptor I (FcγRI) (UniProt P12314 16-288, limits assumed); experiment: as above
T6 construct: also called FcγR1
T6 sequence (P12314 16-288 limits assumed): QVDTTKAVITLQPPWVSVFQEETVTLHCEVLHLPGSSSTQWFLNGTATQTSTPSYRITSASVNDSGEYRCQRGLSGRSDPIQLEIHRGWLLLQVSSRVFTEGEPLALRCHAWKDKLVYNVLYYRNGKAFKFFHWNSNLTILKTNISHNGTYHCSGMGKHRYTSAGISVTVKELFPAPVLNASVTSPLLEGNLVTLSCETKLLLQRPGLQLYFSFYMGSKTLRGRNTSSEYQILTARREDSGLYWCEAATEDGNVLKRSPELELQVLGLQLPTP

[9] = biological target: T1, recombinant human neonatal Fc receptor …; experiment: SPR (Biacore 8K), rhFcRn amine-coupled on CM5, analyte in PBST pH 6.0, steady state affinity
Description: as §1

[10] = biological target: anti-DNP mouse IgE (Sigma); experiment: BLI (Octet K2), fusion protein on AR2G sensor, anti-DNP mouse IgE as analyte, second test
Description: (§3) Specifically, 200 μl of D. W. was dispensed into a 96-well plate, and then an amine biosensor included in the kit was inserted to perform hydration for 10 minutes. Subsequently, after 200 μl of D. W. was additionally dispensed, EDC and NHS were mixed at 1:1 in an amount of 1/20 of the required sample amount and then diluted with D. W., and 200 μl of the resultant was dispensed into the 96-well plate. Next, the FcεRIα-modified IgG4 Fc protein and the FcεRIα-NTIG-IL-10Vm fusion protein were diluted to 10 μg/ml in a 10 mM acetate solution having a pH of 5.0, and then 200 μl of the resultant was added to the 96-well plate. After 200 μl of 1 M ethanolamine was added to the 96-well plate, the biosensor plate and the sample plate were placed in an Octet®-K2 instrument and measured. After the measurement was completed, 200 μl of a 1× kinetics buffer solution was added to the sample plate, and then a baseline was determined.

[11] = biological target: anti-DNP mouse IgE (Sigma); experiment: BLI (Octet K2), fusion protein on AR2G sensor, anti-DNP mouse IgE as analyte, mean of three tests
Description: as §3

[12] = biological target: anti-DNP mouse IgE (Sigma); experiment: BLI (Octet K2), fusion protein on AR2G sensor, anti-DNP mouse IgE as analyte, third test
Description: as §3

[13] = biological target: anti-DNP mouse IgE (Sigma); experiment: BLI (Octet K2), fusion protein on sensor, anti-DNP mouse IgE as analyte, third test
Description: as §3

[14] = biological target: anti-DNP mouse IgE (Sigma); experiment: BLI (Octet K2), fusion protein on sensor, anti-DNP mouse IgE as analyte, first test
Description: as §3

[15] = biological target: anti-DNP mouse IgE (Sigma); experiment: BLI (Octet K2), fusion protein on AR2G sensor, anti-DNP mouse IgE as analyte, first test
Description: as §3

[16] = biological target: anti-DNP mouse IgE (Sigma); experiment: BLI (Octet K2), fusion protein on sensor, anti-DNP mouse IgE as analyte, second test
Description: as §3

[17] = biological target: human IgE; experiment: BLI (Octet K2), fusion protein on AR2G sensor, human IgE as analyte
[18] = biological target: anti-DNP mouse IgE (Sigma); experiment: cell-based or functional assay
[19] = biological target: T7, IL-10 receptor 1 (IL-10R1), IL-10R His-tag protein (UniProt Q13651 22-235, limits assumed); experiment: BLI (Octet K2), IL-10R His-tag protein on AR2G sensor, fusion protein 62.5 to 1,000 nM
T7 construct: not shown: His tag
T7 sequence (looked up): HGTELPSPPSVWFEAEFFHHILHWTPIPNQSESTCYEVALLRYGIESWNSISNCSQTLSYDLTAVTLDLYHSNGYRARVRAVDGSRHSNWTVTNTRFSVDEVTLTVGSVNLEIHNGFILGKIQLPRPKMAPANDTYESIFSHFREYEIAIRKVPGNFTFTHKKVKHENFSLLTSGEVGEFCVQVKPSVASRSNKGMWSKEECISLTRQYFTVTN
Description: (§4) For the analysis, the present inventors attached an IL-10R His-tag protein to a 96-well plate using a Dip and Read™ Amine Reactive 2nd Generation (AR2G) Reagent Kit (forteBio, Cat No. 18-5092). Specifically, 200 μl of D. W. was dispensed into a 96-well plate, and an amine biosensor included in the kit was inserted to perform hydration for 10 minutes. Subsequently, after 200 μl of D. W. was additionally dispensed into a new 96-well plate, EDC and NHS were mixed at 1:1 in an amount of 1/20 of the required sample amount and then diluted with D. W., and 200 μl of the resultant was dispensed into the 96-well plates. Next, the IL-10R His-tag protein was diluted to 10 μg/ml in a 10 mM acetate solution having a pH of 5.0, and then 200 μl of the resultant was added to the 96-well plates. After 200 μl of 1 M ethanolamine was added to the 96-well plates, the biosensor plate and the sample plate were placed in an Octet®-K2 instrument and measured. After the measurement was completed, 200 μl of a 1× kinetics buffer solution was added to the sample plate, and then a baseline was determined.

[20] = biological target: T7, IL-10 receptor 1 (IL-10R1), IL-10R …; experiment: BLI (Octet K2), IL-10R His-tag protein on AR2G sensor
Description: as §4

fold affinity against Rituximab [1]: ~9.3 fold
fold affinity against Trulicity [1]: ~5.3 fold
binding result [2]: no binding
binding result [3]: no binding
binding result [4]: no binding
Kd [5]: 256 nM
binding result [6]: no binding (tested: 10.0 µg/mL)
binding result [7]: no binding
binding result [8]: no binding
Kd [9]: 397 nM
B1: PG-11 (GLP-1E-NTIG) (Fc fusion)
chain: HGEGTFTSDVSSYLEGQAAKEFIAWLVKGGPSSGAPPPSGGGGSGGGGSGGGGSEKEKEEQEERTHTCPPCPSHTQPLGVFLFPPKPKDQLMISRTPEVTCVVVDVSQEDPEVQFNWYVDGVEVHNAKTKPREEQFNSTYRVVSVLTVLHQDWLNGKEYKCKVSNKGLPSSIEKTISKAKGQPREPQVYTLPPSQEEMTKNQVSLTCLVKGFYPSDIAVEWESNGQPENNYKTTPPVLDSDGSFFLYSRLTVDKSRWQEGNVFSCSVLHEALHNHYTQKSLSLSLGK
notes: Produced in ExpiCHO and purified on protein A. The hinge is said in general to dimerise the fusion, but no copy number is stated for PG-11; also called PG-II

Kd [10]: 0.282 nM
Kd [11]: 0.284 nM
Kd [12]: 0.346 nM
koff [13]: 4.82e-05 s⁻¹
kon [13]: 139000 M⁻¹ s⁻¹
koff [14]: 3.4e-05 s⁻¹
kon [14]: 152000 M⁻¹ s⁻¹
Kd [15]: 0.224 nM
koff [16]: 4.06e-05 s⁻¹
kon [16]: 144000 M⁻¹ s⁻¹
Kd [17]: 0.346 nM
koff [17]: 7.59e-05 s⁻¹
kon [17]: 219000 M⁻¹ s⁻¹
IC50 (nM), β-hexosaminidase release from mouse marrow-derived mast cells, column headed 'Fourth test' (equals the mean of the three tests) [18]: 16.9 nM
IC50 (nM), β-hexosaminidase release from mouse marrow-derived mast cells, first test [18]: 21.6 nM
IC50 (nM), β-hexosaminidase release from mouse marrow-derived mast cells, second test [18]: 14.8 nM
IC50 (nM), β-hexosaminidase release from mouse marrow-derived mast cells, third test [18]: 14.4 nM
B2: PG-110 (FcεRIα-NTIG-IL-10Vm) (Fc fusion)
chain: VPQKPKVSLNPPWNRIFKGENVTLTCNGNNFFEVSSTKWFHNGSLSEETNSSLNIVNAKFEDSGEYKCQHQQVNESEPVYLEVFSDWLLLQASAEVVMEGQPLFLRCHGWRNWDVYKVIYYKDGEALKYWYENHNISITNATVEDSGTYYCTGKVWQLDYESEPLNITVIKAPREKYWLQGGGGSGGGGSGGGGSEPKSSDKTHTCPPCPSHTQPLGVFLFPPKPKDQLMISRTPEVTCVVVDVSQEDPEVQFNWYVDGVEVHNAKTKPREEQFNSTYRVVSVLTVLHQDWLNGKEYKCKVSNKGLPSSIEKTISKAKGQPREPQVYTLPPSQEEMTKNQVSLTCLVKGFYPSDIAVEWESNGQPENNYKTTPPVLDSDGSFFLYSRLTVDKSRWQEGNVFSCSVLHEALHNHYTQKSLSLSLGAAGSGGGGGSGGGGSGGGGSSPGQGTQSENSCTHFPGNLPNMLRDLRDAFSRVKTFFQMKDQLDNLLLKESLLEDFKGYLGCQALSEMIQFYLEEVMPQAENQDPDAKAHVNSLGENLKTLRLRLRRCHRFLPCENGGSGGSGGSKSKAVEQVKNAFNKLQEKGIYKAMSEFDIFINYIEAYMTMKIRN
notes: Produced in a CHO DG44 cell line

Kd [19]: 29.2 nM
fold KD against the dimeric IL-10 fusion protein of Example 2-3 [20]: ~3 fold
koff [20]: 0.0006 s⁻¹
kon [20]: 20600 M⁻¹ s⁻¹
B3: PG-088m (NTIG-IL-10Vm) (Fc fusion)
chain: SHTQPLGVFLFPPKPKDQLMISRTPEVTCVVVDVSQEDPEVQFNWYVDGVEVHNAKTKPREEQFNSTYRVVSVLTVLHQDWLNGKEYKCKVSNKGLPSSIEKTISKAKGQPREPQVYTLPPSQEEMTKNQVSLTCLVKGFYPSDIAVEWESNGQPENNYKTTPPVLDSDGSFFLYSRLTVDKSRWQEGNVFSCSVLHEALHNHYTQKSLSLSLGAAGSGGGGGSGGGGSGGGGSSPGQGTQSENSCTHFPGNLPNMLRDLRDAFSRVKTFFQMKDQLDNLLLKESLLEDFKGYLGCQALSEMIQFYLEEVMPQAENQDPDAKAHVNSLGENLKTLRLRLRRCHRFLPCENGGSGGSGGSKSKAVEQVKNAFNKLQEKGIYKAMSEFDIFINYIEAYMTMKIRN
notes: also called monomeric IL-10 variant fusion protein

Kd [19]: 11.1 nM
koff [20]: 0.0008 s⁻¹
kon [20]: 71100 M⁻¹ s⁻¹
B4: PG-088 (NTIG-IL-10V) (Fc fusion)
chain: GGGGSGGGGSGGGGSEPKSSDKTHTCPPCPSHTQPLGVFLFPPKPKDQLMISRTPEVTCVVVDVSQEDPEVQFNWYVDGVEVHNAKTKPREEQFNSTYRVVSVLTVLHQDWLNGKEYKCKVSNKGLPSSIEKTISKAKGQPREPQVYTLPPSQEEMTKNQVSLTCLVKGFYPSDIAVEWESNGQPENNYKTTPPVLDSDGSFFLYSRLTVDKSRWQEGNVFSCSVLHEALHNHYTQKSLSLSLGKAAGSGGGGGSGGGGSGGGGSSPGQGTQSENSCTHFPGNLPNMLRDLRDAFSRVKTFFQMKDQLDNLLLKESLLEDFKGYLGCQALSEMIQFYLEEVMPQAENQDPDAKAHVNSLGENLKTLRLRLRRCHRFLPCENKSKAVEQVKNAFNKLQEKGIYKAMSEFDIFINYIEAYMTMKIRN
notes: also called dimeric IL-10 variant fusion protein
